The record followed here is patent US20090018083A1 (ALBERT EINSTEIN SCHOOL OF MEDICINE OF YESHIVA UNIVERSITY, published 2009).

The target in assay [1] is T1, BCL6-3C BTB domain (human BCL6 residues 5-129 with C8Q/C67R/C84N) (human, UniProt P41182 5-129). The assay can be described thus: native-gel mobility shift assay.
Method: (§1) The mixture was analyzed by non-denaturing polyacrylamide gel electrophoresis (PAGE) and protein bands were visualized with either Coomassie blue staining or silver staining.
For the next assay, the target named is BCL6-3C BTB domain H116A (human, UniProt P41182 5-129). The assay can be described thus: co-purification.
A further assay addresses BCL6-3C BTB domain N21K (human, UniProt P41182 5-129). In words: co-purification.
Assay [2] addresses T2, PLZF BTB domain (UniProt Q05516 6-126, limits assumed).
T2 construct: domain: BTB domain; Purified protein; also called BTB^PLZF
T2 sequence (looked up): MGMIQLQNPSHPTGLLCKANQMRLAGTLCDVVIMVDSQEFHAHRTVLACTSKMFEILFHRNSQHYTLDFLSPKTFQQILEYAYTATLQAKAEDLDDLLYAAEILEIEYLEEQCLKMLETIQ
In words: SPR. For orientation: In SPR one partner is held on a chip, and binding of the other changes the refractive index at the surface.
Method: (§2) SPR: Biotinylated corepressor peptides were coupled to streptavidin-coated sensor chips to a density of 800 response units (Biacore 2000). BCL6 or PLZF BTB protein was serially diluted in running buffer (10 mM Hepes, pH 7.4, 150 mM NaCl, 3 mM EDTA, 0.005% v/v surfactant P20) and injected at a flow rate of 5 μL/min.

Assay [3] has as its target T1, BCL6-3C BTB domain (human BCL6 residues …). In words: co-purification.
Method: (§3) In vitro binding assays. Co-purification: Equimolar amounts of His-tagged thioredoxin-corepressor fusion protein and BCL6 BTB or PLZF BTB domain were combined, incubated for at least two hours, and loaded onto a Ni-NTA spin column (Qiagen). The column was washed three times with 600 μl of wash buffer (200 mM NaCl, 20 mM Tris-HCl pH 8.0, 10 mM imidazole), and bound protein was released with 400 μl of elution buffer (200 mM NaCl, 20 mM Tris-HCl pH 8.0, 300 mM imidazole). Samples were analyzed on 10-20% SDS-PAGE gels and stained with Coomassie blue.
For assay [4] the target is unchanged. In words: SPR, biotinylated peptide on streptavidin chip, BCL6-3C BTB domain injected.
Method: “N.b.” indicates no detectable binding.
as §2
Assay [5] shares this target. In words: non-denaturing PAGE mobility shift, constant BTB domain, increasing peptide.
Method: as §1
Assay [6] has as its target T2, PLZF BTB domain. The assay can be described thus: ITC. Background: ITC needs no label: the signal is the heat of the interaction.
Method: All components were in 150 mM NaCl, 20 mM Hepes pH 7.7, 1 mM TCEP. […] To correct for dilution and mixing effects, a series of control injections was carried out, in which the heat of dilution was measured in blank titrations by injecting the peptide into the buffer.
The target in assay [7] is T1, BCL6-3C BTB domain (human BCL6 residues …). In words: Ni-NTA co-purification with the His-tagged thioredoxin fusion, SDS-PAGE, stained gel.

No end group written: not given here.

Method for BCL6-3C BTB domain H116A: as §3
Method for BCL6-3C BTB domain N21K: as §3

B1: BCoR peptide with the S507A/W509A/V511A triple mutation (peptide)
peptide: RSEIISTAPASAVAPGP
With B1, the binding result in [1] is “no binding”.

B2: hexahistidine tagged fusion protein containing BCoR residues 317 to 547 (other, UniProt Q6W2J9 317-547, looked up)
chain: SAKAVTSGLPGDTALLLPPSPRPSPRVHLPTQPAADTYSEFHKHYARISTSPSVALSKPYMTVSSEFPAARLSNGKYPKAPEGGEGAQPVPGHARKTAVQDRKDGSSPPLLEKQTVTKDVTDKPLDLSSKVVDVDASKADHMKKMAPTVLVHSRAGSGLVLSGSEIPKETLSPPGNGCAIYRSEIISTAPSSWVVPGPSPNEENNGKSMSLKNKALDWAIPQQRSSSCPRM
notes: not shown: hexahistidine tagged fusion partner
On to B2, for which the binding result in the assay with BCL6-3C BTB domain H116A and with BCL6-3C BTB domain N21K was “no binding” each time.

B3: SMRT^1414-1430 peptide, biotinylated, immobilised for SPR (peptide)
peptide: LVATVKEAGRSIHEIPR
modifications: also: biotinylated lysine 8 residues N-terminal to the peptide, not in the given chain
notes: SPR form of the minimal fragment; not shown: N-terminal residues left after TEV cleavage (BirA biotinylation motif, thrombin site)
As for B3, in the assay with PLZF BTB domain [2], the binding result is on record as “no binding”.

B4: hexahistidine tagged fusion protein containing BCoR residues 112 to 342 (other, UniProt Q6W2J9 112-342, looked up)
chain: LGFSSERNPEMQFKPNTPETVEASAVSGKPPNGFSAIYKTPPGIQKSAVATAEALGLDRPASDKQSPLNINGASYLRLPWVNPYMEGATPAIYPFLDSPNKYSLNMYKALLPQQSYSLAQPLYSPVCTNGERFLYLPPPHYVGPHIPSSLASPMRLSTPSASPAIPPLVHCADKSLPWKMGVSPGNPVDSHAYPHIQNSKQPRVPSAKAVTSGLPGDTALLLPPSPRPSPR
notes: as for B2
In the case of B4, in [3], the binding result was “no binding”.

B5: BCoR peptide with the S507W/W509S double mutation (peptide)
peptide: RSEIISTAPWSSVVPGP
As to B5, in assay [1], the binding result is reported as “no binding”.

B6: SMRT^1414-1441 peptide (fragment d), biotinylated, immobilised for SPR (peptide, UniProt Q9Y618 1414-1441, looked up)
peptide: LVATVKEAGRSIHEIPREELRHTPELPL
modifications: also: biotinylated lysine in N-terminal tag residues (not given here)
notes: not shown: N-terminal residues left after TEV cleavage (BirA biotinylation motif, thrombin site)
What is called Kd is the equilibrium constant for the complex coming apart. Higher therefore signals weaker binding. For the molecule B6, the binding result in the assay with PLZF BTB domain [2] is recorded as “no binding”. For the same molecule, the equilibrium dissociation constant (Kd) in [4] was 15.8 nM.

B7: hexahistidine tagged fusion protein containing BCoR residues 542 to 753 (other, UniProt Q6W2J9 542-753, looked up)
chain: SSCPRMGGTDAVITNVSGSVSSAGRPASASPAPNANADGTKTSRSSVETTPSVIQHVGQPPATPAKHSSSTSSKGAKASNPEPSFKANENGLPPSSIFLSPNEAFRSPPIPYPRSYLPYPAPEGIAVSPLSLHGKGPVYPHPVLLPNGSLFPGHLAPKPGLPYGLPTGRPEFVTYQDALGLGMVHPMLIPHTPIEITKEEKPERRSRSHERA
notes: as for B2
On to B7, for which the binding result in assay [3] was “no binding”.

B8: BCoR 498-514 peptide (BCoR BBD) (peptide)
peptide: RSEIISTAPSSWVVPGP
notes: Purified peptide used for co-crystallisation; also called BCoR-BBD peptide; BCoR peptide
As for B8, in assay [5], the binding result is reported as “binds”.

B9: SMRT^1417-1441 peptide, biotinylated, immobilised for SPR (peptide, UniProt Q9Y618 1417-1441, looked up)
peptide: TVKEAGRSIHEIPREELRHTPELPL
modifications: also: biotinylated lysine in N-terminal tag residues (not given here)
notes: as for B6
As to B9, the binding result with PLZF BTB domain [2] is recorded as “no binding”.

B10: SMRT^1414-1430 peptide (SMRT-BBD), no additional N-terminal residues (peptide)
peptide: LVATVKEAGRSIHEIPR
notes: Made by thrombin digestion of the fusion protein
As for B10, the binding result in the assay with PLZF BTB domain [6] is recorded as “no binding”.

B11: SMRT-BBD with residues 1427-1430 replaced by alanines (EIPR->AAAA) (peptide)
peptide: LVATVKEAGRSIHAAAA
notes: also called AAAA mutant; not shown: N-terminal fusion or tag residues depend on the assay (His-Trx fusion in co-purification, biotinylated tag remnant in SP)
Regarding B11, the binding result in assay [7] is given as “no binding”.

B12: SMRT-BBD with the SI to IS substitution at residues 1424-1425 (peptide)
peptide: LVATVKEAGRISHEIPR
notes: The text calls it SMRT-BBD; also called IS mutant; not shown: N-terminal fusion or tag residues depend on the assay (His-Trx fusion in co-purification, biotinylated tag remnant in SP)
For the molecule B12, the binding result in [7] is on record as “no binding”.
